# Tests used:
# [1] = Calculation of free payload:ADC following ADC administration
# Description: Antibody drug conjugates with thiol-malimide conjugation undergo deconjugation following administration. To assess this deconjugation, free payload: ADC was calculated rather than reverse, because for completely stable antibody, ADC:free payload would be infinity.
# Antibody drug conjugates with thiol-malimide conjugation undergo deconjugation following administration. To assess this deconjugation, free payload: ADC was calculated for specific antibody drug conjugates including Trastuzumab, Polatuzumab, Enfortumab and Tisotumab.
# [2] = Post-injection bleb volume, area, height - caliper measurement; format: in vivo, Yucatan miniature pig (Sus scrofa domestica); conditions: Example 8: dupilumab 2 mL; dupilumab + rHuPH20 5 mL; T0
# Description: (§1) The needle was inserted vertically into the marked injection site and the HVAI held in place by hand. Target needle insertion depth was ˜10 mm. Injections were timed using a stopwatch. Upon completion of the injection the needle was removed and the HVAI device discarded. Test solution back-leakage was then absorbed to a tared eye-spear for 30 seconds on the injection site and the weight of the eye spear was measured using an analytical balance. The margins of the injection site bleb were marked with a permanent marker and measured for length, width, and height using a digital caliper and recorded then photographed with the standard and 3D cameras. Caliper measurements and photographs were taken immediately post-injection. Local injection sites were qualitatively assessed and graded daily for erythema severity, swelling size appearance, and firmness, using a scoring system described in Table 4 Table 5, and Table 6, respectively.
# Assessment of Local Swelling Volume and Area Using Caliper Measurement and 3D Imaging. Volume and area of post-injection swelling were measured using both caliper measurement and 3D camera image analysis. For caliper measurements a digital caliper was utilized to measure length, width and height of the bleb that formed post-injection. The length and width are defined as the edge to edge measurements of the bleb (i.e., diameter) along their longest axes. These values were manually recorded, and the volume determined using the formula for half of an ellipsoid Vol=(⅔)*π*A*B*C where A=Length/2, B=Width/2 and C=Height.
# Assessment of Post-Injection Bleb Volume, Area and Height (Caliper Measurements). The local injection site swelling (bleb) was marked and measured using a digital caliper.
# [3] = Qualitative assessment of local injection sites (erythema, swelling size, induration); format: in vivo, Yucatan miniature pig (Sus scrofa domestica); conditions: Example 8: dupilumab 2 mL; dupilumab + rHuPH20 5 mL; T0, three evaluators
# Description: as §1
# Approximately, 24 hours post-dosing of the first injection, each animal was re-anesthetized, and injection sites assessed for erythema, induration and swelling, then photographed and returned to its cage.
# [4] = Calculation of drug to antibody ratio (DAR); conditions: for ADC:free Ab / free Ab:ADC: after adjustment factor
# Description: The Drug-to-Antibody Ratio (DAR) is a critical parameter in antibody drug conjugate development, representing the average number of drug molecules attached to each antibody molecule.
# [5] = Concentration (weight/mL) basis, Unconjugated MMAE/ADC over 28 days
# [6] = Molar basis, Unconjugated MMAE/ADC over 28 days
# [7] = Molar basis, Using molecular weight for the entire linker, MMAE/ADC over 28 days
# [8] = Concentration (weight/mL) basis, unconjugated MMAE/antibody conjugated MMAE over 21 days
# [9] = Molar basis, Using molecular weight for the entire linker
# [10] = Molar basis, different tumor (line after the one using molecular weight for the entire linker)
# [11] = Molar basis, unconjugated MMAE/antibody conjugated MMAE over 21 days
# [12] = Concentration (weight/mL) basis
# [13] = Molar basis, second line, Unconjugated MMAE/ADC over 21 days
substance,measurement,setting,value
Enfortumab vedotin (Padcev),"free payload: ADC, AUC",[1]; [5],0.08%
same,"free payload: ADC, Cmax",[1]; [5],0.02%
same,"free payload: ADC, AUC",[1]; [6],16.4%
same,"free payload: ADC, Cmax",[1]; [6],4.2%
same,"free payload: ADC, AUC",[1]; [7],8.9%
same,"free payload: ADC, Cmax",[1]; [7],2.3%
Polatuzumab vedotin (Polivy),"free payload: ADC, AUC",[1]; [8],1.52%
same,"free payload: ADC, Cmax",[1]; [8],0.46%
same,"free payload: ADC, AUC",[1]; [9],173.1%
same,"free payload: ADC, Cmax",[1]; [9],52.8%
same,"free payload: ADC, AUC","[1]; Molar basis, different tumor",257.1%
same,"free payload: ADC, Cmax","[1]; Molar basis, different tumor",87.2%
same,"free payload: ADC, AUC",[1]; [10],140.2%
same,"free payload: ADC, Cmax",[1]; [10],47.5%
same,"free payload: ADC, AUC",[1]; [11],317.5%
same,"free payload: ADC, Cmax",[1]; [11],96.9%
Tisotumab vedotin (Tivdak),"free payload: ADC, AUC",[1]; [12],0.09%
same,"free payload: ADC, Cmax",[1]; [12],0.01%
same,"free payload: ADC, AUC",[1]; Molar basis,18.5%
same,"free payload: ADC, Cmax",[1]; Molar basis,3.1%
same,"free payload: ADC, AUC",[1]; [13],10.1%
same,"free payload: ADC, Cmax",[1]; [13],1.7%
dupilumab,"Post-injection bleb Area, caliper (Mean ± SEM)",[2],13.1 ± 1.4
same,"Post-injection bleb Volume, caliper (Mean ± SEM)",[2],7.0 ± 1.8
same,Induration Score (Mean ± SEM),[3],2.4 ± 0.4
same,Swelling Score (Mean ± SEM),[3],1.4 ± 0.2
mirvetuximab soravtansine,% DAR remaining (which may be ~ADC/ total Ab),[4]; Day 1,88.4%
same,% DAR remaining after adjustment factor to allow for variability (line without head),[4]; Day 1,70.7%
same,ADC:free Ab,[4]; Day 1,241.3%
same,free Ab:ADC,[4]; Day 1,41.4%
same,% DAR remaining (which may be ~ADC/ total Ab),[4]; Day 7,32.6%
same,% DAR remaining after adjustment factor to allow for variability (line without head),[4]; Day 7,26.0%
same,ADC:free Ab,[4]; Day 7,35.2%
same,free Ab:ADC,[4]; Day 7,283.9%

# From US20260069707A1, “COMBINATION THERAPY WITH ANTIBODY-DRUG CONJUGATES AND HYALURONIDASES” (HALOZYME, INC., priority 2024, published 2026)
